Source: patent US20250206828A1, “ANTI-ADENOSINE RECEPTOR (A2aR) ANTIBODIES AND THE USE THEREOF” (Adept Therapeutics Inc., priority 2022, published 2025)
Positions count from the first letter of the chain named.

Experiments:
[1] = target: human A2aR (Homo sapiens, UniProt P29274); test: In vitro blocking activity of purified humanized anti-A2aR antibodies and SMIs (cAMP-Glo, adenosine or NECA); format: cell-based; settings: purified antibodies
Procedure: The activity of A2aR is mediated by Gas protein which activates adenylyl cyclase, resulting in the synthesis of intracellular cAMP. The level of cAMP correlates with the respective adenosine (agonist) level. cAMP can be detected using a variety of commercial cAMP assay kit.
Briefly, clear flat bottom 96 well tissue culture plate (Fisher Scientific) was coated with 50 μl per well of 50 µg/ml poly-D-lysine (Gibco, Cat. A3890401) solution at 4° C. overnight. After 3 washes with sterile endotoxin free water, the coated culture plate was left uncovered in a biosafety cabinet to dry. Freshly thawed A2aR-overexpressing HEK293 cell (BPS Bioscience) were seeded on poly-D-lysine coated plates at 10^4/well in 100 μl culture medium for 24 hours in 37° C., 5% CO2 incubator. After wash with warmed PBS once, one hundred microliters (100 μl) starvation medium (MEM (Hyclone Cat. SH30024.01)+2% charcoal stripped serum (Thermo Fisher, Cat. A3382101)+1% Penicillin/Streptomycin) were added for overnight culture in an incubator at 37° C. and 5% CO2. […] Plates were read to obtain Relative Light Unit (RLU) on SpectraMax 5 reader (Molecular Device). Data were analyzed using Prism software.

[2] = target: human A2aR-expressing HEK293 cells (Homo sapiens, UniProt P29274); test: Flow cytometry based internalization assay; format: cell-based; settings: 1, 0.5 and 0.25 μg/ml, 1, 2 and 4 hours at 37° C.
Procedure: 2×10^5/well freshly cultured human A2aR-expressing HEK293 cells (BPS Bioscience) were incubated with antibodies to be tested at indicated concentration (1, 0.5 and 0.25 μg/ml) on ice for 45 minutes. Parental 3F6 were used as positive control. After wash with FACS buffer, samples were split into 4 sets. One set of samples were maintained on ice. The other three sets of samples were left in 37° C., 5% CO2 incubator for further incubation for 1, 2 and 4 hours. All four sets of samples were followed by staining with PE-conjugated goat-anti-human Fc antibody (1:400, Jackson Immuno Research, Cat. 109-116-098) for 30 minutes, and then washed with cold FACS buffer, cells were then stained with 1:100 diluted 7−AAD (Biolegend) and then fixed with 2% of paraformaldehyde (diluted from 10% paraformaldehyde (MilliporeSigma, Cat. R04586)). All samples were analyzed on Guava 11HT or 5HT (Luminex). The mean fluorescence intensity (MFI) was obtained and data was analyzed using Flowjo software. Internalization rate was calculated as: […]

[3] = system: cynomolgus A2aR on the cell surface of cynomolgus PBMCs; test: Binding of anti-A2aR antibodies to cynomolgus PBMC subsets (CD4 T, CD8 T, NK, NKT cells; FACS); settings: for binding (cross-reactivity) to cynomolgus T cells (CD4+, CD8+), NK cells and NKT cells: cynomolgus PBMCs, FACS
Procedure: Human and cynomolgus PBMCs were purchased from Cytologics LLC (San Diego, CA) and iQ Biosciences (Berkeley, CA), respectively. 10^6 human and/or cynomolgus PBMCs in 100 μl FACS buffer (1×DPBS, 2% FBS) were incubated with anti-A2aR antibodies at 4° C. for 30 minutes. After wash, samples were stained with PE-conjugated goat-anti-human Fc antibody (1:400, Jackson ImmunoResearch Labs, Cat. 109-116-098) and other surface markers using cynomolgus cross-reactive APC/cy7-anti-CD3 (BD Bioscience, Cat. 557757), BV421-anti-CD4 (Biolegend, Cat. 317433), BV650-anti-CD8 (Biolegend, Cat. 301042) and BV711-anti-CD56 (BD Bioscience, Cat. 742661) for 30 minutes, and Zombie Green fixable Viability dye (Biolegend, Cat. 423111) were used according to manufacturer's instruction to define live immune cell subsets. After wash with FACS buffer, cells were analyzed on FACSAria (BD). Data was analyzed using Flowjo (Becton Dickinson).

cynomolgus A2aR on the cell surface of cynomolgus PBMCs, sequence (as listed by the source): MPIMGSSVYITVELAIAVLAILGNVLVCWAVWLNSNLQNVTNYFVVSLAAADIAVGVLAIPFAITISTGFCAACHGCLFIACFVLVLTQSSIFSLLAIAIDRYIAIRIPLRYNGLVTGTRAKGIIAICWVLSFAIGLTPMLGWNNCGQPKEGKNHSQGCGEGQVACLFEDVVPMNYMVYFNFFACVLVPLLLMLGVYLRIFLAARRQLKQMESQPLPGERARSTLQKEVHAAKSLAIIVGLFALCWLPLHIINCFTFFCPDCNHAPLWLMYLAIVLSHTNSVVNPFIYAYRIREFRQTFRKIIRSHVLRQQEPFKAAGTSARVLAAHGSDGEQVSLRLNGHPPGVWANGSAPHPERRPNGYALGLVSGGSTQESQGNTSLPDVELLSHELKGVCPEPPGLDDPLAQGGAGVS
human A2aR-expressing HEK293 cells, sequence (P29274 whole entry): as the sequence (as listed by the source) above, with N263S, T371A, S379G, G407D counted along it
human A2aR, sequence (P29274 whole entry): as the sequence (as listed by the source) above, with N263S, T371A, S379G, G407D counted along it

B1: Hu3F6-H3/Hu3F6-L5: humanized anti-A2aR IgG1 FES antibody; HCVR SEQ ID NO:60, LCVR SEQ ID NO:80 (antibody, V domains shown)
VH: EVQLVQSGAEVKKPGASVKVSCKTSGFAFTSYWMNWVRQAPGQGLEWIGRIDPSDSEAHYHHKFWGRATLTVDTSSSTVYMELSSLRSEDTAVYYCLRSLYGKGDYWGHGTTVTVSS
VL: DVVMTQTPLSLSVTPGQPASISCRSSQSLVHRNGNTYLEWYLQKPGQSPQLLIYKVSNRFSGVPDRFSGSGSGTDFTLKISRVEAEDVGVYYCYQGSHVPLTFGGGTKVEIK
blocking of the activities of human A2aR expressed on cell surface (RLU, FIG. 1A, 1B) [1]: blocked the activities of human A2aR expressed on cell surface
internalization upon binding to cell surface A2aR (percentage of internalization, FIG. 2) [2]: induce internalization upon binding to cell surface A2aR
% of A2aR+ CD4+ T cells ([3]; Cynomolgus 1 PBMC): 1.65%
% of A2aR+ CD8+ T cells ([3]; Cynomolgus 1 PBMC): 0.05%
% of A2aR+ NK cells ([3]; Cynomolgus 1 PBMC): 6.52%
% of A2aR+ NKT cells ([3]; Cynomolgus 1 PBMC): 1.06%
% of A2aR+ CD4+ T cells ([3]; Cynomolgus 2 PBMC): 1.20%
% of A2aR+ CD8+ T cells ([3]; Cynomolgus 2 PBMC): 0.11%
% of A2aR+ NK cells ([3]; Cynomolgus 2 PBMC): 2.07%
% of A2aR+ NKT cells ([3]; Cynomolgus 2 PBMC): 0.45%
binding (cross-reactivity) to cynomolgus T cells (CD4+, CD8+), NK cells and NKT cells [3]: bound to various human and cynomolgus CD4+ and CD8+ T cells

B2: Hu3F6-H5/Hu3F6-L5: humanized anti-A2aR IgG1 FES antibody; HCVR SEQ ID NO:62, LCVR SEQ ID NO:80 (antibody, V domains shown)
VH: B1 VH with H61A, T74K
VL: B1 VL
blocking of the activities of human A2aR expressed on cell surface (RLU, FIG. 1A, 1B) [1]: blocked the activities of human A2aR expressed on cell surface
internalization upon binding to cell surface A2aR (percentage of internalization, FIG. 2) [2]: induce internalization upon binding to cell surface A2aR
% of A2aR+ CD4+ T cells ([3]; Cynomolgus 1 PBMC): 4.76%
% of A2aR+ CD8+ T cells ([3]; Cynomolgus 1 PBMC): 0.15%
% of A2aR+ NK cells ([3]; Cynomolgus 1 PBMC): 5.71%
% of A2aR+ NKT cells ([3]; Cynomolgus 1 PBMC): 4.14%
% of A2aR+ CD4+ T cells ([3]; Cynomolgus 2 PBMC): 10.6%
% of A2aR+ CD8+ T cells ([3]; Cynomolgus 2 PBMC): 0.41%
% of A2aR+ NK cells ([3]; Cynomolgus 2 PBMC): 2.92%
% of A2aR+ NKT cells ([3]; Cynomolgus 2 PBMC): 4.28%
binding (cross-reactivity) to cynomolgus T cells (CD4+, CD8+), NK cells and NKT cells [3]: bound to various human and cynomolgus CD4+ and CD8+ T cells
